Reference: patent publication US20060234940

Molecular target: peptides of the growth hormone releasing factor (GRF) family

| Protein | hydrolysis (MALDI-TOF MS, capillary zone electrophoresis) |
| --- | --- |
| porcine kidney DP IV, wild type (protein) DSRRTYTLTDYLKSTFRVKFYTLQWISDHEYLYKQENNILLFNAEYGNSSIFLENSTFDELGYSTNDYSVSPDRQFILFEYNYVKQWRHSYTASYDIYDLNKRQLITEERIPNNTQWITWSPVGHKLAYVWNNDIYVKNEPNLSSQRITWTGKENVIYNGVTDWVYEEEVFSAYSALWWSPNGTFLAYAQFNDTEVPLIEYSFYSDESLQYPKTVRIPYPKAGAENPTVKFFVVDTRTLSPNASVTSYQIVPPASVLIGDHYLCGVTWVTEERISLQWIRRAQNYSIIDICDYDESTGRWISSVARQHIEISTTGWVGRFRPAEPHFTSDGNSFYKIISNEEGYKHICHFQTDKSNCTFITKGAWEVIGIEALTSDYLYYISNEHKGMPGGRNLYRIQLNDYTKVTCLSCELNPERCQYYSASFSNKAKYYQLRCFGPGLPLYTLHSSSSDKELRVLEDNSALDKMLQDVQMPSKKLDVINLHGTKFWYQMILPPHFDKSKKYPLLIEVYAGPCSQKVDTVFRLSWATYLASTENIIVASFDGRGSGYQGDKIMHAINRRLGTFEVEDQIEATRQFSKMGFVDDKRIAIWGWSYGGYVTSMVLGAGSGVFKCGIAVAPVSKWEYYDSVYTERYMGLPTPEDNLDYYRNSTVMSRAENFKQVEYLLIHGTADDNVHFQQSAQLSKALVDAGVDFQTMWYTDEDHGIASNMAHQHIYTHMSHFLKQCFSLP | All peptides were hydrolyzed by porcine DP IV, recombinant human DP IV or DP IV activity of the human serum |
| DP IV activity of the human serum (protein) SRKTYTLTDYLKNTYRLKLYSLRWISDHEYLYKQENNILVFNAEYGNSSVFLENSTFDEFGHSINDYSISPDGQFILLEYNYVKQWRHSYTASYDIYDLNKRQLITEERIPNNTQWVTWSPVGHKLAYVWNNDIYVKIEPNLPSYRITWTGKEDIIYNGITDWVYEEEVFSAYSALWWSPNGTFLAYAQFNDTEVPLIEYSFYSDESLQYPKTVRVPYPKAGAVNPTVKFFVVNTDSLSSVTNATSIQITAPASMLIGDHYLCDVTWATQERISLQWLRRIQNYSVMDICDYDESSGRWNCLVARQHIEMSTTGWVGRFRPSEPHFTLDGNSFYKIISNEEGYRHICYFQIDKKDCTFITKGTWEVIGIEALTSDYLYYISNEYKGMPGGRNLYKIQLSDYTKVTCLSCELNPERCQYYSVSFSKEAKYYQLRCSGPGLPLYTLHSSVNDKGLRVLEDNSALDKMLQNVQMPSKKLDFIILNETKFWYQMILPPHFDKSKKYPLLLDVYAGPCSQKADTVFRLNWATYLASTENIIVASFDGRGSGYQGDKIMHAINRRLGTFEVEDQIEAARQFSKMGFVDNKRIAIWGWSYGGYVTSMVLGSGSGVFKCGIAVAPVSRWEYYDSVYTERYMGLPTPEDNLDHYRNSTVMSRAENFKQVEYLLIHGTADDNVHFQQSAQISKALVDVGVDFQAMWYTDEDHGIASSTAHQHIYTHMSHFIKQCFSLP | All peptides were hydrolyzed by porcine DP IV, recombinant human DP IV or DP IV activity of the human serum |
